The values that follow come from article doi:10.1101/2025.08.28.672867, “Catalytic pocket of Clr4 (Suv39h) methyltransferase serves as a substrate receptor for Cullin 4-dependent histone H3 ubiquitination” (bioRxiv, 2025).

One experiment addresses T1, 6×His-MBP-Raf1 (S. pombe, UniProt O74910 1-638).
T1 construct: Raf1 (Rik1-associated factor 1, DDB2 homolog), S. pombe; Expressed from one bacmid with Raf2, Rik1 and Cul4 and purified with them; A TEV site lies between MBP and Raf1; also called Raf1-MBP; Raf1 (DDB2 homolog); source: Hi5 insect cells (baculovirus), purified (Ni-NTA, amylose, SEC) together with Raf2, Rik1 and Cul4; not shown: His6, N-terminal, kept; MBP, N-terminal, kept
T1 sequence (looked up): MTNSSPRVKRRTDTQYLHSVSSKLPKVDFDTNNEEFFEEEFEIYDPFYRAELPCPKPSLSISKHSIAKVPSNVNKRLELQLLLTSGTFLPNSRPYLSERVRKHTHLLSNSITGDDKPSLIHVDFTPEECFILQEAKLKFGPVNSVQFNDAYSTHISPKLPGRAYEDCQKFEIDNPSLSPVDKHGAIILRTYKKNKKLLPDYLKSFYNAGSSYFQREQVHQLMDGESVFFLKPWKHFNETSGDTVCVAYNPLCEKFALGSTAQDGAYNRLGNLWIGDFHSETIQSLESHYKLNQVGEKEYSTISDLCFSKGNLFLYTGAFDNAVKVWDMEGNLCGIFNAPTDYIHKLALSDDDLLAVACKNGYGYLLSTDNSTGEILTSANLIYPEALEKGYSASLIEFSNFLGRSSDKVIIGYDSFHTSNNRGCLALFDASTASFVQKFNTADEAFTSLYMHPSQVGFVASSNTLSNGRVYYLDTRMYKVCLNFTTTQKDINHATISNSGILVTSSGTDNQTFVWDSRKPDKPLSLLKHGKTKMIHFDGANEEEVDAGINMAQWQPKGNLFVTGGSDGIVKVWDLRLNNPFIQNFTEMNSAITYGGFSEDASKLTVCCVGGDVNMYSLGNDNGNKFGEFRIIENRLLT
As to the kind of experiment: pull-down; MBP-Raf1 held on amylose resin and incubated with Clr4 FL or fragments (legend: 'MBP pulldown assays of CLRC subunits'); 1:1 molar ratio, 30 min on ice, resin 1 h at 4 °C; wash 20 mM HEPES pH 7.5, 150 mM NaCl, 0.02% Triton X-100; SDS-PAGE. Conditions: both partners purified.

For experiment [1], the target named is T2, CLRC complex lacking Clr4 (CLRC^-Clr4): 6×His-MBP-Raf1, Raf2, Rik1 and Cul4 (S. pombe, UniProt O74910 1-638; O74560 1-636; Q10426 1-1040; O14122 1-734).
T2 construct: Raf1 (DDB2 homolog), S. pombe; as the chain of m2; Raf2, S. pombe; as the chain of m3; Rik1 (DDB1 homolog), S. pombe; as the chain of m4; Cullin 4, S. pombe; as the chain of m5; also called four-subunit CLRC complex; CLRC minus Clr4; source: Hi5 insect cells (baculovirus, single bacmid), purified (Ni-NTA, amylose, SEC on Superose 6 Increase); not shown: His6, N-terminal, kept; MBP, N-terminal, …
The experiment is described as above. The settings on record: both partners purified.

T2 sequence (O74560 whole entry, chain 2 of 3): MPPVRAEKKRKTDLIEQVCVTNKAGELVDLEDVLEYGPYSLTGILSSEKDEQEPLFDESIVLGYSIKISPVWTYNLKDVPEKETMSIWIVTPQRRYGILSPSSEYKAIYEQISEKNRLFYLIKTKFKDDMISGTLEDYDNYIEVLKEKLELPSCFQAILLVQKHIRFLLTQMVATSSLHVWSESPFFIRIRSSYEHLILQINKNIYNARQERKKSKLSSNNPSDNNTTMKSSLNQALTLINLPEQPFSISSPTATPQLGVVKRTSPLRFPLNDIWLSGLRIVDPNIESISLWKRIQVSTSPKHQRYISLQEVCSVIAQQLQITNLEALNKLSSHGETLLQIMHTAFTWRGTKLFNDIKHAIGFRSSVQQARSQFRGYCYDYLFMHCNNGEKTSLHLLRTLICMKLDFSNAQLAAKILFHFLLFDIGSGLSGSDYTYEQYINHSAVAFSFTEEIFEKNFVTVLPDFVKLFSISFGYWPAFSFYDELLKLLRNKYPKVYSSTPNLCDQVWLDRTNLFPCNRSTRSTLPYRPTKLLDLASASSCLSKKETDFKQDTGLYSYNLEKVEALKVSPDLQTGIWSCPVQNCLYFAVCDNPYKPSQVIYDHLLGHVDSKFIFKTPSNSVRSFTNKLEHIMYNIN
T2 sequence (Q10426 whole entry, chain 3 of 3): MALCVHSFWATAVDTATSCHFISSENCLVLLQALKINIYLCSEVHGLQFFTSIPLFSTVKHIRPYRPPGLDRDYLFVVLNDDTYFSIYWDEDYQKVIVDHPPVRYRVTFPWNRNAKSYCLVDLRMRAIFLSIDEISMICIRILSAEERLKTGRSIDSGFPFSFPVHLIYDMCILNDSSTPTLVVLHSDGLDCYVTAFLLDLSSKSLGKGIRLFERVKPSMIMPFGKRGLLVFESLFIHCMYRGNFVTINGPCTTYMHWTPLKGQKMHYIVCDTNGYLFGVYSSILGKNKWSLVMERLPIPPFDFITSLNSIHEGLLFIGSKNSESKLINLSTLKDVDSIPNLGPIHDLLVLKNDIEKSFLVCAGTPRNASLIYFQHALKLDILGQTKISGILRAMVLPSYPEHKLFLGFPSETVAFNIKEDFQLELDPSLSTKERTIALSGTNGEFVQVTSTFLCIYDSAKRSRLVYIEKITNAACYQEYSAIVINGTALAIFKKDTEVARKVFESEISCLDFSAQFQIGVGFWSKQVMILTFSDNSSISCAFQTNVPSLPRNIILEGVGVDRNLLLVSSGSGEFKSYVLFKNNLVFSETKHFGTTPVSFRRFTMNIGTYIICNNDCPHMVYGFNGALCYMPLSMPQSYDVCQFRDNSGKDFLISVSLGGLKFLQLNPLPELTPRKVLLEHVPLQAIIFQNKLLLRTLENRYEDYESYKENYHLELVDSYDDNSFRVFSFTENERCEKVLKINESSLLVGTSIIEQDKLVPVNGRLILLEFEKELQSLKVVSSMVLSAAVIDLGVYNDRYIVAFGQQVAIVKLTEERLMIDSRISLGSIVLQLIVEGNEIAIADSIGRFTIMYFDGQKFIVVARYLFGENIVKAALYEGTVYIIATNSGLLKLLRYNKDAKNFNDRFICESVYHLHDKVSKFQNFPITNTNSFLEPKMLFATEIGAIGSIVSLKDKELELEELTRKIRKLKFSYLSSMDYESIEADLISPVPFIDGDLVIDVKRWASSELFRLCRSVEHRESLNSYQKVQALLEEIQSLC
T2 sequence (O14122 whole entry, chain 4 of 3): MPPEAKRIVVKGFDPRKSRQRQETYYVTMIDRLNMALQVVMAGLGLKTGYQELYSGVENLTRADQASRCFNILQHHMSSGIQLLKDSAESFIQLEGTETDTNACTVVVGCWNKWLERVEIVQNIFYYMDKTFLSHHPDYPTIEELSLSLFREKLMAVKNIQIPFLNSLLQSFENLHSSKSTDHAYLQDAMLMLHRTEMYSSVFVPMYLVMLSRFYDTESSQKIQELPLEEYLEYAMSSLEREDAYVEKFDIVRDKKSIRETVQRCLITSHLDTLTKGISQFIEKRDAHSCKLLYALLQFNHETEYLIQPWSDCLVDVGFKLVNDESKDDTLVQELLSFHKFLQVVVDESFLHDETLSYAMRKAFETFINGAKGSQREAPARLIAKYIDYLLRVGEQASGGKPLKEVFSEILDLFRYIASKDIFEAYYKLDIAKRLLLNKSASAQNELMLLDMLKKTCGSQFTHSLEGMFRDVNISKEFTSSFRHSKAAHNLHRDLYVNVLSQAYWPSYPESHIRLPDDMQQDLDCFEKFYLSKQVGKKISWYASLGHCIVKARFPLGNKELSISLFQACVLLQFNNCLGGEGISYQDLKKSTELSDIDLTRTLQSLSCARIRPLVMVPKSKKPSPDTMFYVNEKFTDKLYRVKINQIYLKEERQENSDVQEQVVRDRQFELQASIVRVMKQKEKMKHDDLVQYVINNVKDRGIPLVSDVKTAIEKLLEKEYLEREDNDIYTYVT

B1: Clr4N-Set2 (Clr4 chromodomain-hinge fused to the SET domain of S. pombe Set2) (other, UniProt O60016 1-192, looked up)
chain: MSPKQEEYEVERIVDEKLDRNGAVKLYRIRWLNYSSRSDTWEPPENLSGCSAVLAEWKRRKRRLKGSNSDSDSPHHASNPHPNSRQKHQHQTSKSVPRSQRFSRELNVKKENKKVFSSQTTKRQSRKQSTALTTNDTSIILDDSLHTNSKKLGKTRNEVKEESQKRELVSNSIKEATSPKTSSILTKPRNPSLFHHLDSAKDKALTTFEEIQECQYASANIGKPPENEAMICDCRPHWVDGVNVACGHGSNCINRMTSIECTDEDNVCGPSCQNQRFQRHEFAKVDVFLTEKKGFGLRADANLPKDTFVYEYIGEVIPEQKFRKRMRQYDSEGIKHFYFMMLQKGEYIDATKRGSLARFCNHSCRPNCYVDKWMVGDKLRMGIFCKRDIIRGEELTFDYNVDRYGAQAQPCYCGEPCCVGYIGGKTQTEAQSK
notes: Clr4, S. pombe, chromodomain and hinge region, amino acids 1-192 (GST-Clr4 ΔSET); Set2 H3K36 methyltransferase, S. pombe, SET domain, amino acids 90-330, fused to the C-terminus of Clr4 ΔSET; also called GST-Clr4 CD-Hinge-Set2; GST-Clr4N-Set2
On to B1, for which the binding result (with 6×His-MBP-Raf1; in experiment [1]) was “binds” throughout.

B2: Clr4 ΔSET (amino acids 1–192) (domain or fragment, S. pombe, UniProt O60016 1-192, looked up)
chain: MSPKQEEYEVERIVDEKLDRNGAVKLYRIRWLNYSSRSDTWEPPENLSGCSAVLAEWKRRKRRLKGSNSDSDSPHHASNPHPNSRQKHQHQTSKSVPRSQRFSRELNVKKENKKVFSSQTTKRQSRKQSTALTTNDTSIILDDSLHTNSKKLGKTRNEVKEESQKRELVSNSIKEATSPKTSSILTKPRNPS
notes: Clr4, S. pombe, chromodomain and hinge region, amino acids 1-192; also called GST-Clr4 ΔSET
As for B2, the binding result with 6×His-MBP-Raf1 is listed as “binds”.
